Measurements reported in article doi:10.1101/2021.07.08.451649 (bioRxiv, 2021).

Target: Recombinant SARS-CoV-2 spike N-terminal domain (NTD) (SARS-CoV-2, ancestral (Wuhan-Hu-1), UniProt P0DTC2)
Assay: BLI

B1: PVI.V6-14 monoclonal antibody (IgG) (antibody, V domains shown)
VH: QVQLQESGPGLVKPSETLSLTCTVSGGSISSSSYYWGWIRQPPGKGLEWIGSIYYSGSTYYNPSLKSRVTISVDTSKNQFSLKLSSVTAADTAVYYCARCRPEYYFGSGSYLDFDY
VL: DIQMTQSPSSVSASVGDRVTITCRASQGISSWLAWYQQKPGKAPKLLIYAASSLQSGVPSRFSGSGSGTDFTLTISSLQPEDFATYYCQQANSFPLTFGGGTKVEIK
binding result: binds
